From a protein production outcome set (Wang et al. 2014)

Assay: label from the status in PepcDB records
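Note: failed if final PepcDB status was selected cloned or expressed and not failed if soluble or beyond.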

Sequence	protein production
MSNGIVIIGSGFAARQLVKNIRKQDATIPLTLIAADSMDEYNKPDLSHVISQGQRADDLTRQTAGEFAEQFNLHLFPQTWVTDIDAEARVVKSQNNQWQYDKLVLATGASAFVPPVPGRELMLTLNSQQEYRACETQLRDARRVLIVGGGLIGSELAMDFCRAGKAVTLIDNAASILASLMPPEVSSRLQHRLTEMGVHLLLKSQLQGLEKTDSGIQATLDRQRNIEVDAVIAATGLRPETALARRAGLTINRGVCVDSYLQTSNTDIYALGDCAEINGQVLPFLQPIQLSAMVLAKNLLGNNTPLKLPAMLVKIKTPELPLHLAGETQRQDLRWQINTERQGMVARGVDDADQLRAFVVSEDRMKEAFGLLKTLPM	failed
MSNGTPQKTKLHFPHTYALIFFIIILAALASYFIPSGEFKRVEEDGQTVIVQGSYKQTDAGPVGFFEMFKAIPEGMIQSADIIFYIFLIGGAFGIIHQTGMIRAGVHVLVQRLKKRGFLLIPVTMFVFSIGGATIGLSEETIIFIPIGIAVARALGYDSMTGLAMISLGAAAGFTGGMLNPFTVGIAQTIAEVPVFSAFGYRLAVYAAMLGFSIFYVMRYAQQVKAHPNTGLMYGSETEINEETAAGHADLSFTGRHGLVLLITALGFGINMFGVFQWGWFLSELSAGFLIIGFAAGLAGGRGINNTFHSFVDGMKQVVYGALIVGFARAIVIVLENGHIIDTIINSLASAISSLPNEISAIGMFAVQIAINTFIPSGSGQAATTMPLMAPLADLLGFERQIAVFAYQYGDGITNSIIPTSGVLLASLSIAGVPYERWVKFVWKLIAGWIIIGAAAIVIAMIIGIK	failed
MSNIECVMFDCDGTLVDSEVLCCRAYVVMFAHYDIHLSLEEVIKRFKGVKLNEIVARVSQENGLDEPIEKLEKLYRAEVARLFDAELQPIAGAKALLEQITLPVCVVSNGPVSKMQHSLGLTGLLPFFEDKLYSGYDIQRWKPDPTLIYHAAEKMHVAAERCILVEDSAAGTHAGIAAGIPVYYYCADPHNQPIHHPLVTMFDDMQQLPDLWRERGWQITSH	failed
MSNKLLLVFALIGIIVVFSCGLFLPIPIGYRVSMLTAGVIMSVVFSIIIPFDRKHIVRKKGNKIDFTKTKVYFRWNVFDTISVCLALYACICVQVLIFLVPMGFTIQNPYVQFFTNQSQLWVFIAIAYLISRISLTLKGIKEIKNHGADWD	failed
MSNKPASQQTRLTDWLIFLAVPFFFSSNVIFGRGVVGEVSPFIAAFIRWMGSTLIIAPFMIADWRNCLAFVRDKMLLWLVLGILGMGICGGVVYWGLTMTTAANGTLIYTTSSLFIILFQRIFQGRPIRKLEVAGMVIAFAGVAAIVLKGDISALRHMNFNIGDFAILTAAIAFAIYSLLLRDPAARQMASFSLFGLIAFSGALVLLPPAALELAQGGMLPATGAAWAKIGGIILFASLLAFYCFTHTVRVFGPATAGITLYMMPPVSILMATIFLGETFETYHAIGIVLVTGGVILATAPIGRKR	failed
MSNLISRILTALIFGFITLCLTWVGGTLFFLFVWVIGGFILYEWMSITKEKWHVLQKILASVFYLVFGAFLISNASASLIFCILIALAALLAIGPMRKSVWVFFGFLYVCFPVVALSFLRGHEPLGFWVVIFLFTIVWGTDIAGYFSGRAFGGPKLAPQFSPNKTWMGAIGGTFVGVSGGILIAFQFFDLNSAVFFVLLLALILSIVSQMSDLGQSWLKRQFSVKDSGSLLPGHGGFMDRMDGLVGAAFLLYLIGSFMSNMDTPFNLFCMV	failed
MSNMEKHLFNLKFAAKELSRSAKKCDKEEKAEKAKIKKAIQKGNMEVARIHAENAIRQKNQAVNFLRMSARVDAVAARVQTAVTMGKVTKSMAGVVKSMDATLKTMNLEKISALMDKFEHQFETLDVQTQQMEDTMSSTTTLTTPQNQVDMLLQEMADEAGLDLNMELPQGQTGSVGTSVASAEQDELSQRLARLRDQV	not failed
MSNNSKISWTTTTWNVTAGCDPISDGCKNCYARMMAERLKAMGQAKYQNGFIPTIHSECLNEPFGWKGNKLVFVVSMGDLFHKDIPFDFIDKVIEVITKCPQHTFQILTKRAERMYEYFSTHAIPENVWLGVTVENQKVKGRIDYLKKLDAPVRFLSCEPLLEDLGTLDLSDIDWVIVGGESGNRARKVEKDWILNIKSQCDASTSTAFFFKQWGTWGADGVKRSAKENGCLLDGKEYHAYPTPRKIKPLEHHHHHH	not failed
MSNSMLDKNKAILTGGGALLLGLIVLFYLAYRPKAEVLQGFLEAREYSVSSKVPGRIEKVFVKKGDHIKKGDLVFSISSPELEAKLAQAEAGHKAAKALSDEVKRGSRDETINSARDVWQAAKSQATLAKETYKRVQDLYDNGVASLQKRDEAYAAYESTKYNESAAYQKYKMALGGASSESKIAAKAKESAALGQVNEVESYLKDVKATAPIDGEVSNVLLSGGELSPKGFPVVLMIDLKDSWLKISVPEKYLNEFKVGKEFEGYIPALKKSTKFRVKYLSVMGDFATWKATNNSNTYDMKSYEVEAIPLEELENFRVGMSVLVTIKP	failed
MSNSQWVPVSLNEYLAHLPMSDEQRAELASCTTFAELHERLSAQPVTDPAEAAQASVGRRLTLSADDLEDAEMLGVDASGRLCLKATPPIRRTKVVPEPWRTNILVRGWRRLTGKSNPPKPDHSDLPRDLPKSRWRTVGSIRRYILLILMLGQTIVAGSYMKGILPYQGWSLVSLDEITRQTFVQTALQVLPYALQTSILLLFGILFCWVSAGFWTALMGFLELLTGRDKYRISGASAGNEPIEAGARTALVMPICNEDVPRVFAGLRATFESVAATGNLDRFDFFVLSDTNETDIAVAEQQAWLDVCRETKGFGSIFYRRRRRRVKRKSGNLDDFCRRWGGEYRYMVVLDADSVMSGECLTSLVRLMEATPDAGIIQTAPRASGMDTLYARMQQFATRVYGPLFTAGLHFWQLGESHYWGHNAIIRMKPFIEHCALAPLPGKGAFAGAILSHDFVEAALMRRAGWGVWIAYDLPGSYEELPPNLLDELKRDRRWCHGNLMNFRLFLVKGMHPVHRAVFLTGVMSYLSAPLWFFFLVLSTALLAVNTLMEPTYFLEPRQLYPLWPQWHPERAVALFSTTIVLLFLPKLLSVILIWAKGAKGFGGKFKVTVSMLLEMLFSVLLAPVRMLFHTRFVLAAFLGWAATWNSPQRDDDSTPWLEAVKRHGPQTLLGACWALLVFWLNPSFLWWLAPIVVSLMLSIPVSVISSRTNLGLKARDEKFFLIPEEFEPPQELVSTDQYTHENRWHALKQGFIRAVVDPRQNALACALATSRHRQAQPIEVVRMERVDHALKVGPAKLDNQHRLMLLSDPVALGRLHERVWSEGHEEWLAAWRASIEADPHAPLLPLQPVVKAPEPVLV	failed
MSNSSQYYTRTAQFLHWIMAIIFISAWIIGFYSGNFLNYETDGSFKGDVITLHKNIATTIIFLVMIRIFWRYTHPTPELPATMSPLMKKLAHLGHLALYVILIALPISGCFYSWSAGHPAPVLYLFNIPQLIGENPEIMAIAKPVHVYLSWFAGLMVAGHILAALKHHFIDKDNVLKSMIKQSR	failed
MSNSTEPALAIITVTYSPGKHLGAFLSSVKEATAQPTYVVLADNGSVDGVPEAAAQADPSVEFFPTGGNIGYGSAINAAVRKLAPLRESGKINAEFFVLSNPDVVFEPGSIDAMVQCASRHPQAADIGPYIRQSDGSAYPSARQVPTIKNGVGHALFSSVWPSNPWSRAYRDNRDMTTERTAGWLSGSCLLVRWDAFEQIGGFDERYFMYMEDVDLGDRFGRAGFDNVFCPDAVITHAVGHAAGKHPEKMLPAHHDSAYRFQADRHPGLRYLPLRVLLRVGLKLRAVVAVAAAKFKLEHHHHHH	not failed
MSNTVRAISPDITLFNKTLTFQEISQNTREAVIYIHGGAWNDPENTPNDFNQLANTIKSMDTESTVCQYSIEYRLSPEITNPRNLYDAVSNITRLVKEKGLTNINMVGHSVGATFIWQILAALKDPQEKMSEAQLQMLGLLQIVKRVFLLDGIYSLKELLVEYPEYDCFTRLAFPDGIQMYEEEPSRVMPYVKKALSRFSIDMHLVHSYSDELLTLRQTNCLISCLQDYQLSFKLYLDDLGLHNDVYKNGKVAKYIFDNIC	not failed
MSNYNVSLVGPAPWGFRLQGGKDFNMPLTISSLKDGGKASQAHVRIGDVVLSIDGISAQGMTHLEAQNKIKACTGSLNMTLQRASAAAKSEPVAVQKGEPKEVVKPVPITSPAVSKVTSTTNMAYNKVPRPFGSVSSPKVTSIPSPSSAFTPAHAATSSHASPPPVAAVTPPPLSASGLHASANPSAAQCSSPPNTGKPAVHVPRQPTVTSVCSESAQELAEGQRRGSQGDIKQQNGPPRKHIVERNTEFYHIPTHSDASKKRLIEDTEDWRPRTGTTQSRSFRILAQITGTEHLKESENDNAKKANSTPEPSQQSASPLSAAESLESPGSNRPVVAGLRSAAAFKPVGSTSVKSPSWQRPNQAAPSTGRISNSASSSGTGAPMKPAVGPPQPSDQDTLVQRAEHIPAGKRTPMCAHCNQAIRGPFLVALGKSWHPEEFNCAHCKNTMAYIGFVEEKGALYCELCYEKFFAPECGRCQRKILGEVINALKQTWHVSCFVCVACGKPIRNNVFHLEDGEPYCETDYYALFGTICRGCEFPIEAGDMFLEALGSTWHDTCFVCSVCCESLEGQTFFSKKDKPLCKKHAHSVNF	failed
MSPEGAERYDRNCDHQFQKGHVLIEMMGIKKGDFVLDVGCGTGRQALNVAGIIGPAGKLTGIDPSSYRIELARKKFEGDSSGNVRFLVRQAENLQDIPDNSINHAYFCSSFHWVDDKKTALNEIFRVLRPGGKVGMTTLDRNSPNTMKALIDPILAKFGIERRHEWHRGMKKVTAPELHDLLSGAGFTSISIEPRAVPRKYNSPEEFLQHPEEKDSSRGILRDISNETLEKLRQEITEEFRKAQTPEDIGFGNITLFAIATKAQEGLEHHHHHH	failed
MSPENKICMEQSEDGDLDAGDELFEEVDGDGKGEIFANRELLNIDHVPDENRIVGRDEHITELANEIGPAVTGSPPNSVILYGKTGSGKSLVANHVMERARREAQRRDRRLATVTVDCAQSRGEADTVQTIADKINRSTSGVTVPTRGISTNEYYNRLWQILGTEYDAALITLDEVDRLSDDDILMILSRAREAGKVDVPIGIISISNKVNFREQMTERVKSSLGHNEMIFDPYDGEQLRQILENRKDAFQEDILMPGVIPKTAALAAQRHGDARKAIRLLRHAGDYAKTNNIGTVKESHLELAQEQAEVERLKELISGLPPHSKYVLYALANLTDGTTNSNDWFRTTVIYDVYEEVCKTEATDTLTTDTIRGLLNELAFLEITESNQEHGGMGKGTYKEHRLLWDPNVVFKMNPGSAQVDTDR	failed
MSPIDEFTYIKQNKIVYDSNSLIQLYFPIMGSDAMALYDYFVHFFDDGIRRHKFSEVLNHLQYGMPRFQDALVMLTALDLLTVYQATGTYLVKLNQAMSNELFLSNPIYRRLLEKRIGEVAVAELDMKIPKNARDISKKFTDVFSDLGQPKQEVNRSKNVFDLESFKRLMMRDGLRFNNEKDDVLGIYSVSELYHLNWYDTYQLAKQTAINGMIAPQRMKVQQNEGQHIKDNQSFTNNEKVILRESKNDSALVFLEKIKRSRKAVTTSGEKTLLEDLAKMNFLDEVINVMVLYTLNKTKSANLNKAYIMKVANDFAFQNVMTAEDAVLKIRDFSDQKVRTKTETKKKQSNVPEWSNPDYKDEVSPEKEIELEQFKTDALKRLERLGKD	not failed
MSPIHVRAHPGDVAERVLLPGDPGRAEWIAKTFLQNPRRYNDHRGLWGYTGLYKGVPVSVQTTGMGTPSAAIVVEELVRLGARVLVRVGTAGAASSDLAPGELIVAQGAVPLDGTTRQYLEGRPYAPVPDPEVFRALWRRAEALGYPHRVGLVASEDAFYATTPEEARAWARYGVLAFEMEASALFLLGRMRGVRTGAILAVSNRIGDPELAPPEVLQEGVRRMVEVALEAVLEV	not failed
